# The RNAGym collection of RNA variant scans (doi:10.1073/pnas.2313332121)
# Fewer inactive variants are shown than the library holds.
# B1: TPR 5TU (parent)
# chain: GGAUCUUCUCGAUCUAACAAAAAAGACAAAUCUGCCACAAAGCUUGAGAGCAUCUUCGGAUGCAGAGGCGGCAGCCUUCGGUGGCGCGAUAGCGCCAACGUUCUCAACUAUGACACGCAAAACGCGUGCUCCGUUGAAUGGAGUUUAUCAUG
# Variants of: B1
# Test: polymerase ribozyme fitness, log enrichment relative to wild type (log ratio); higher = more active; in vitro selection for triplet polymerase activity
# Outline: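 Input and output libraries were sequenced on Illumina after a single in vitro selection round, run in triplicate on PCR-built, transcribed mutant libraries of each subunit of a heterodimeric triplet polymerase ribozyme. Selection annealed libraries to a biotinylated primer, the partner subunit and triplets, incubated them frozen at −7 °C, then gel-excised extended constructs for streptavidin-bead capture and RT-PCR. Genotypes with ≥10 input reads and ≥1 read per output were kept. Fitness is the logarithm, taken in base 2, of genotype enrichment divided by wild-type enrichment, using inverse-variance-weighted replicate averages.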
row,Variant,polymerase ribozyme fitness (log ratio)
1,C5A A60G,0.956
2,G48C G141U,-1.8
3,C69U G100A A137C,≤ -4.2
4,G67C G83A,≤ -4.2
5,U45G C69A,-1.95
6,A21G U33G A52C U61G A64G U78G C95A A106G A142G,≤ -4.2
7,C93G A97G G140C A147U C149G,≤ -4.2
8,A17C A29C A66U G67A A91G C96U A115G C116A,≤ -4.2
9,U31G A40C G42A G50A C54U C72U G94U,≤ -4.2
10,A16C G59C,-0.987
11,C79G G128U,≤ -4.2
12,C14A U82G C96G,-2.31
13,G50A C93U,-3.07
14,A21G U33G A37U C85U C95U G141C,≤ -4.2
15,A3C A97U U135G G140C,≤ -4.2
16,A20G A142C,-1.06
17,C132U G152U,-2.75
18,C95G C96U A120U A122C U139G,-1.86
19,U101G G136C,-2.44
20,U53A A147G,-3.69
21,G83A A91U G100U,≤ -4.2
22,U61A U77A C95U A97C U139A A150G,≤ -4.2
23,C36U G62A C72U,-3.23
24,C14A C63U G71A C85G G100U,≤ -4.2

row,Variant,polymerase ribozyme fitness (log ratio)
1,A113U G124U,-2.07
2,C54G C76G A89U C93A A113G C116U,≤ -4.2
3,C51U U53A C93A G124U,-3.59
4,C10A G42C U44A U53A C85A A122C,≤ -4.2
5,U61A G84A,-1.38
6,C79A C93G C95U U127G C131U G143U,≤ -4.2
7,A20C C36A,-4.06
8,A3U C8A U13G U90A C93A A107G G143C,≤ -4.2
9,A41U A49G A52C G84A C103G A115U,≤ -4.2
10,A26U C85U A115G,-3.36
11,C99U A119C C125G U134G,-3.27
12,C38U G84U C87G U144C C149G,≤ -4.2
13,C93A A150G,-3.51
14,C85G C95A,-1.68
15,G50A G84U,-1.58
16,A98U A137C,-4.19
17,C14A C76A A89C U90G C95U A107U,≤ -4.2
18,C38U A110U,-3.7
19,U61A A97G G136A,-0.653
20,A29C A41U G83A A138U,≤ -4.2
21,A37C G50U G59U G86U,-2.65
22,C95A C99A C123G,-1.33
23,U101G A113U,-1.25
24,G11C A28G U56A U77A C87A A122U,≤ -4.2

row,Variant,polymerase ribozyme fitness (log ratio)
1,A30G A64G G136C,-4.07
2,G11A A17G U31A U53G C54U A64G,≤ -4.2
3,U15G A26U C38G G42A U44A C95G C99U,≤ -4.2
4,U82A A106G C123G U148G,-4.03
5,U15A G25C A29C G48C A64U C93U C95A C149A,≤ -4.2
6,A20U G42A G62A G86U U134G G140U,≤ -4.2
7,G59U C99U C132U,-1.59
8,A26C C93G C114U,-4.19
9,U44A C72G C79A A150C,≤ -4.2
10,C96A G126A U139G U151C,≤ -4.2
11,C8U A20G,-3.94
12,C32A A41C A66C C95U C99G G117U A150C,≤ -4.2
13,C38U C69G C95U A122C,-2.43
14,C35U A52C U55A C93U C149A,≤ -4.2
15,U61G C96U,-1.29
16,A106G U134A,-1.28
17,A60U U61A C69G C96U,≤ -4.2
18,A23U C85U A91G G126C G140U,≤ -4.2
19,A19C G46A G62A G94A C95A,≤ -4.2
20,G83C G126A,0.0538
21,C63U U148C,-1.65
22,U7C A12C A24C C96U A120C,≤ -4.2
23,A37C A60C C85U G126C U146C,-2.23
24,C85A G117A A138G,-4.18

row,Variant,polymerase ribozyme fitness (log ratio)
1,A40U U55A C85A C116A,-0.563
2,A26C C35U U44A C57U G58U C85A,≤ -4.2
3,C87A G92U,0.159
4,G25U A39G U61A U77A C87U G141A U151A,≤ -4.2
5,C27U A37C C51U C57U C95U C125A,-4.06
6,C93U G141A U146G,-3.48
7,A23U G50C U139G,≤ -4.2
8,A24G G62U G94A C116G A120U U127A U135C,≤ -4.2
9,C51U U53A U61A A97C G140A G143A,≤ -4.2
10,U53A G94A C125A U139C A142C,≤ -4.2
11,A39C U53A G86C C105A A119U,≤ -4.2
12,A28G C93U C105G,≤ -4.2
13,G67C C93G C118G A150C,≤ -4.2
14,A47C U77G U130G,≤ -4.2
15,A40U G88C U101G,≤ -4.2
16,A17U A26U U45A A64G C85G A138G G143U,≤ -4.2
17,U6G A29U A73G U77C C95U A107U,≤ -4.2
18,A28U A73U A91G C125A A137C,≤ -4.2
19,C57U C95G,-2.96
20,C38A C76U A110G A113G G152A,≤ -4.2
21,A12U C27U A73U C96G A97U A107G,≤ -4.2
22,G112U,-2.77
23,A22U U31C C32U,-3
24,C14A C38A G42C U56G G67C G84A C108U U127C,≤ -4.2

row,Variant,polymerase ribozyme fitness (log ratio)
1,C8U A21C G25U A97U,≤ -4.2
2,C54A C69U,-4.12
3,C5A A20C,0.413
4,G58A G88U C96U C118A C125A G133A,≤ -4.2
5,U9A C43A A147U U151G,≤ -4.2
6,A49C A52U A138U,≤ -4.2
7,A12C A20C U53A C76A U151G,≤ -4.2
8,U7A C54A C72A,≤ -4.2
9,G25C A52C G58C G62U U78G U82C C93A C125G,≤ -4.2
10,G48A G59A,-0.452
11,C54U G94C G124A,-1.04
12,C75U A91G U104A U139A,≤ -4.2
13,U53A C63U C69U A122U,-3.99
14,U45A A64C C93A,≤ -4.2
15,U6A C87A A137C,≤ -4.2
16,A22U C76U U102G,-3.01
17,U4G A19C C36A A119C G133A,≤ -4.2
18,A17U G92U U101G U127G U148A,-4.01
19,G81C G94U A98U U146G,-0.695
20,A16U C38U A91U C103A,≤ -4.2
21,G62C C123A,-1.69
22,C51G U56A A97U C123U,-3
23,G86A G143U,-3.07
24,G58C A115U U127C U144G,0.143

row,Variant,polymerase ribozyme fitness (log ratio)
1,C36U C85U G133A U135C,-4.18
2,A30G C87U U101A U109C A115U A120U A122U U145G G152A,≤ -4.2
3,G42A C79G U144C,≤ -4.2
4,A52G U135G U139C A147C,≤ -4.2
5,G58A C116U,0.457
6,C99A C116U,-0.602
7,C27U C63U C87A G141U,≤ -4.2
8,A22U C57G G58A C114G,-2.5
9,C27U A37U C99G,-3.64
10,C54G C57A G74A A91C C95U C132A,≤ -4.2
11,A52C A113C,-3.36
12,A12G A29U U31A G67U C72A G92U A137G,≤ -4.2
13,U61C G80C C85U C99U U146A,≤ -4.2
14,G11C C36U C57A G100A,≤ -4.2
15,G48C G94U C96U C118G A122U,-3.42
16,A49G A52C C95U C96A C99A,≤ -4.2
17,C63G G92U U102C A120G,-1.8
18,A37U U134G,-2.86
19,A24U U135C,-2.21
20,A21U C96G,-0.697
21,C125A A147U,-0.189
22,C5A C14G G94C G143A,-4.07
23,A22G A23U C35A C75A C95G,≤ -4.2
24,C69A C118U,-1.62

row,Variant,polymerase ribozyme fitness (log ratio)
1,A21U G46U U55A C85G A106G C116A,-1.91
2,C32G U55G C79U C96G,-4.01
3,C57U C95U C103G,-1.87
4,C57A G86A U146G,-1.4
5,C10G C36U G70C C79A C95G A115U,≤ -4.2
6,A12G C14G A97U,-2.49
7,G34A U102G,≤ -4.2
8,A3G A22C U45C A66C G67C C93U A113U,≤ -4.2
9,A3G G86A,-1.52
10,A28C A30C A41U C57U A107C,≤ -4.2
11,A37C G94U A98U,-1.16
12,U55A U56G C75G,-4.19
13,A12C A37C C72A U90G U101A C103U A138G A142U,≤ -4.2
14,A52G G141A,-1.24
15,U13C C14U C54A G92A,≤ -4.2
16,C96A C105U A122U,0.463
17,G11C C105U C118G,-1.92
18,C35U U53A,-0.557
19,G58U G68A C95U,-4.01
20,A29G C38U U53G C85G A98U C108A G128U,-3.97
21,G11C A115C,-2.86
22,U56A C85U,-0.564
23,C54U C85G,-2.49
